# B1: Hsl1 (Saccharomyces cerevisiae S288C) (protein)
# chain: MTGHVSKTSHVPKGRPSSLAKKAAKRAMAKVNSNPKRASGHLERVVQSVNDATKRLSQPDSTVSVATKSSKRKSRDTVGPWKLGKTLGKGSSGRVRLAKNMETGQLAAIKIVPKKKAFVHCSNNGTVPNSYSSSMVTSNVSSPSIASREHSNHSQTNPYGIEREIVIMKLISHTNVMALFEVWENKSELYLVLEYVDGGELFDYLVSKGKLPEREAIHYFKQIVEGVSYCHSFNICHRDLKPENLLLDKKNRRIKIADFGMAALELPNKLLKTSCGSPHYASPEIVMGRPYHGGPSDVWSCGIVLFALLTGHLPFNDDNIKKLLLKVQSGKYQMPSNLSSEARDLISKILVIDPEKRITTQEILKHPLIKKYDDLPVNKVLRKMRKDNMARGKSNSDLHLLNNVSPSIVTLHSKGEIDESILRSLQILWHGVSRELITAKLLQKPMSEEKLFYSLLLQYKQRHSISLSSSSENKKSATESSVNEPRIEYASKTANNTGLRSENNDVKTLHSLEIHSEDTSTVNQNNAITGVNTEINAPVLAQKSQFSINTLSQPESDKAEAEAVTLPPAIPIFNASSSRIFRNSYTSISSRSRRSLRLSNSRLSLSASTSRETVHDNEMPLPQLPKSPSRYSLSRRAIHASPSTKSIHKSLSRKNIAATVAARRTLQNSASKRSLYSLQSISKRSLNLNDLLVFDDPLPSKKPASENVNKSEPHSLESDSDFEILCDQILFGNALDRILEEEEDNEKERDTQRQRQNDTKSSADTFTISGVSTNKENEGPEYPTKIEKNQFNMSYKPSENMSGLSSFPIFEKENTLSSSYLEEQKPKRAALSDITNSFNKMNKQEGMRIEKKIQREQLQKKNDRPSPLKPIQHQELRVNSLPNDQGKPSLSLDPRRNISQPVNSKVESLLQGLKFKKEPASHWTHERGSLFMSEHVEDEKPVKASDVSIESSYVPLTTVATSSRDPSVLAESSTIQKPMLSLPSSFLNTSMTFKNLSQILADDGDDKHLSVPQNQSRSVAMSHPLRKQSAKISLTPRSNLNANLSVKRNQGSPGSYLSNDLDGISDMTFAMEIPTNTFTAQAIQLMNNDTDNNKINTSPKASSFTKEKVIKSAAYISKEKEPDNSDTNYIPDYTIPNTYDEKAINIFEDAPSDEGSLNTSSSESDSRASVHRKAVSIDTMATTNVLTPATNVRVSLYWNNNSSGIPRETTEEILSKLRLSPENPSNTHMQKRFSSTRGSRDSNALGISQSLQSMFKDLEEDQDGHTSQADILESSMSYSKRRPSEESVNPKQRVTMLFDEEEEESKKVGGGKIKEEHTKLDNKISEESSQLVLPVVEKKENANNTENNYSKIPKPSTIKVTKDTAMESNTQTHTKKPILKSVQNVEVEEAPSSDKKNWFVKLFQNFSSHNNATKASKNHVTNISFDDAHMLTLNEFNKNSIDYQLKNLDHKFGRKVVEYDCKFVKGNFKFKIKITSTPNASTVITVKKRSKHSNTSSNKAFEKFNDDVERVIRNAGRS
# notes: full-length with C-terminal TAP tag kept (chromosomal HSL1-TAP); IgG-Sepharose purified from S. cerevisiae, endogenously phosphorylated; ~190 kDa on gel
# Substrate: Nc1ncnc2c1ncn2[C@@H]1O[C@H](COP(=O)(O)OP(=O)(O)OP(=O)(O)O)[C@@H](O)[C@H]1O
# Assay: purified protein
# Assay type: biochemical, Saccharomyces cerevisiae
# Conditions: 500 nM Pah1 as protein substrate, 10 mM MgCl2, 2 mM DTT, pH 7.5, 30 °C, labelled compound
protein,measurement,value
B1,Km,31 µM
